According to the RNAGym collection of RNA variant scans (doi:10.1073/pnas.2313332121):

B1: TPR t1 (parent)
chain: GACCAAUCUGCCCUCAGAGCUCGAGAACAUCUUCGGAUGCAGAGGAGGCAGGCUUCGGUGGCGCGAUAGCGCCAACGUCCUCAACCUCCAAUGCAUCCCACCACAUGAUGAUGCCUGAAGAGCCUUGGUUUUUUG

Variants of: B1
Assay: polymerase ribozyme fitness, log enrichment relative to wild type (log ratio); higher = more active; in vitro selection for triplet polymerase activity
Outline: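 Streptavidin-bead capture of gel-excised extended constructs, followed by RT-PCR, closed a single triplicate in vitro selection round. That round began by annealing PCR-built, transcribed mutant libraries of each subunit of a heterodimeric triplet polymerase ribozyme with a biotinylated primer, the partner subunit and triplets, then incubating them frozen at −7 °C. After Illumina sequencing of inputs and outputs, genotypes needed ≥10 input reads and ≥1 read per output. Fitness is the base-2 logarithm of genotype enrichment over wild-type enrichment, using inverse-variance-weighted replicate averages.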

Variant	polymerase ribozyme fitness (log ratio)
C82U C89A	-1.21
U78G U130G	-0.347
C79G U81A C98U C102G G107C	-7.84
U78C U87C C115U	-0.381
U81A A90U	-2.41
C80U C98U	-1.69
C79G C114A	-0.594
U78G G113U	-3.89
U78G G113A	-1.05
G77U U131A	-0.157
C79U G93A C102A	-2.33
C82G C98A A118U	-5.57
U81C U106A	0.0236
U78C A105C A121C	-0.547
C79U U106A U116C U126C	-1.17
U81A C82A C98U	-3.39
C79U C82A	-1.23
C80A U116G G120C C123A	-3.59
U78C C88U A121C	1.67
U78G U96A C124G	1.43
U78C C80G A121G	-2.75
C82U U96G G122A	-1.25
C79A U106C	-0.96
U78G C114U U129G	-4.71

Variant	polymerase ribozyme fitness (log ratio)
U78A C89U C104U	-1.1
C82G G110U	-3.25
U78C U125A	-0.432
C79A A95G C101U C123U	-4.17
U78G U109A	-6.21
C80U U133G	-0.514
C79G C89U U112A	-2.07
C79A U129A	-2.44
C79G A83G C89G	-3.62
U78G U116C U133A	-0.304
C82A G110U C123U	-2.47
C79G U96A	-2.96
A83C G93C	-0.701
C79U C124A	1.12
C79U C124G	1.81
C79G U126A G128U	-4.31
C80U C101U A118G A121U U131A	0.732
C82G C97A U112C C115G U133G	-6.38
U78A U92G U125G	-4.08
U78A G107C	-6.06
U78C U92G C114U	-2.3
U78G C88U A91U A95U	-3.4
C79A G113C	-3.64
U78A C82G C115A U130A	-0.912

Variant	polymerase ribozyme fitness (log ratio)
U78G A84U C115U A121C	-3.92
U78C U130C	0.0983
U78A C94A U125G	-2.31
U78C G93U C124A	0.632
C80U C97U	-0.856
U78G G110U G127U	-2.47
U78C G113A	-1.36
U78C A118U	0.929
C82G G117C	-3.58
U81G C94G G117U	-6.8
C79G U87G U92C G120U	-4.54
C80A A84U	-3.74
C82U U87C G113A	-1.19
C80G U106G G110A C124G	-6.57
U78G C102U	-1.93
U78C A83G U106C	-1.19
A83C A121G	1.63
C80G U132C	-4.66
C82G G93C U129G	-2.84
U78C U106A	0.00582
U78C C88G	-0.636
U78C C86A	-0.372
U81A A91G U92G	-4.76
U81C G127C	-1.22

Variant	polymerase ribozyme fitness (log ratio)
C79A G107A G117U	-6.98
C79A U112C G127A	-1.43
A83C C114A C123G C124G	-0.19
C82G G128A	-2.22
C79U A95G A105U	-2.87
U81G G93A U106A C123U	-3.83
C82U C88G C124U	0.172
U78C A121U	1.42
U81G C124A G128C U130G	-2.26
U78G G93A	-0.0742
U78A C114A	-1.63
C82G A118U	0.179
C79U C94A	-4.5
C79U C94G	-0.831
C79G G120A U130C	-1.26
U81G U130A	-3.23
C80A C85U C86A U87C	-7.24
U81A C102A	-3.36
C79U C94U C98U	-1.64
U78A C123U	1.1
C80U A84U	-1.02
U78C U112A	1.12
C80U U106A	-0.267
C80U C85A	-2.89

Variant	polymerase ribozyme fitness (log ratio)
C79U G122U	0.0245
C79U G113U U116A	-5.49
C79A C85U	-2.34
U78G G107U	-5.32
C82A U92A	-3.43
G77U U81G	-3.24
C79G C89A	-5.03
C82A G93C A111C	-0.977
C82U G117U	-2.7
C79G C82U U130A	-2.13
U78A C79A A95C U133A	-4.23
C80A C114G G117U	-6.34
C79G C123U	0.127
U78C G127U	-1.04
C82U A91U A100U	-3.25
C80G U87A U116G A119U C124G	-6.5
U81G A95U	-6.29
A83C C88U	-0.561
C80A U129A	-3.77
C82G C88U A103C G117C	-5.02
C82G C123G U126C G128C	-2.13
C80A A84G C98U	-6.69
C82G U109C	-5.03
U81C C114A	-2.34

Variant	polymerase ribozyme fitness (log ratio)
U78C G117A	-1.35
U78C G117C	-3.6
U78C C85G	-1.82
U78A U130G	-0.269
C80A U109G	-5.76
C80A U109A	-6.3
C80A U96C C115A	-3.34
U78A U112C G120A	-0.475
U81A G117U	-3.99
A83C C101G U109A G120A	-7.06
C79A C101U	-1.4
C82A C97G	-5.53
U78C C94G A108G C114G U130G	-5.42
U78C U109A	-5.34
U78A C115G	-2.13
U78G C114U	-2.96
C79G C101A G135U	-4.68
U78G C89A G117A	-4.25
U78G A91C U92G	-3.13
U78A C124G	1.42
C82A C123U	0.707
U78A C80A C94G U133A	-6.19
U78G C88U U92G G120C U134G	-1.71
C79A C88U C101U	-0.735

Variant	polymerase ribozyme fitness (log ratio)
C82U C89U G113U G120A G128A	-5.47
U81C C97U C114A	-3.09
U78A C104U C115U	-1.54
C79U C89U C102U G120C	-2.83
C79A C94A	-2.38
U78A G117A	-1.76
C79U U81A	-1.75
C79G C85G	-3.02
C79G C85A	-3.62
U78G G93A G120U	-0.265
U81G G120A	-3.83
U78G C80U G93U	-1.61
C80U C102A U106A U112A	-4.1
C82G C99U	-3.61
C82U U96A C101A G127A	-4.42
U78G G113A C124G	-0.667
U78A G122A	-1.42
G77U U132A	-0.53
U78A C115G U116G	-3.11
C79A A95U	-1.9
U78C C94U	-0.58
U78G C80U	-0.927
C82A U87A	-0.237
